This is an account of results in the supplement of paper PMC7877785.

This series is described as follows: self-splicing fitness, log relative to wild type (ln ratio); higher = more splicing; Tetrahymena group I intron in knt gene, E. coli kanamycin selection, DiMSum; sequences stand for … in CUCUCU…GGAGGGAAAAGUUAUCAGGCAUGCACCUGGUAGCUAGUCUUUAAACCAAUAGAUUGCAUCGGUUUAAAAGGCAAGACCGUCAAAUUGCGGGAAAGGGGUCAACAGCCGUUCAGUACCAAGUCUCAGGGGAAACUUUGAGAUGGCCUUGCAAAGGGUAUGGUAAUAAGCUGACGGACAUGGUCCUAACCACGCAGCCAAGUCCUAAGUCAACAGAUCUUCUGUUGAUAUGGAUGCAGUUCACAGACUAAAUGUCGGUCGGGGAAGAUGUAUUCUUCUCAUAAGAUAUAGUCGGACCUCUCCUUAAUGGGAGCUAGCGGAUGAAGUGAUGCAACACUGGAGCCGCUGGGAACUAAUUUGUAUGCGAAAGUAUAUUGAUUAGUUUUGGAGUACUCGUGGUCG
The method in brief:
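Six replicate transformations of E. coli BL21(DE3) with a pET-22b(+) library were grown overnight at 37°C or 30°C. The library randomised all eight P1ex-region intron nucleotides, the intron lying in the knt kanamycin-resistance gene, and plates were LB agar with or without 25 μg/mL kanamycin plus 100 μg/mL carbenicillin, 50 μM IPTG and 0.2% rhamnose. Pooled colonies were amplicon-sequenced on an Illumina HiSeq 2500, and fitness is the DiMSum error-weighted combination of wild-type-normalised replicate fold changes, kanamycin versus none.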

± gives the uncertainty stated by the source.

Regarding UUGCAGCAAUAUUACGACAA, the “self-splicing fitness (ln)” value by setting is: (30 °C) -0.619 ± 0.087; (37 °C) 0.212 ± 0.1.
With UGUAAGCAAUAUUACGGACU, the “self-splicing fitness (ln)” value is, setting by setting: (30 °C) -0.351 ± 0.094; (37 °C) 0.0199 ± 0.11.
The like results for UGGCAGCAAUAUUACGUUAG were, in that order, -0.283 ± 0.087 and 0.37 ± 0.12.
The like results for CCCGAGCAAUAUUACGAGCU were, in that order, -3.75 ± 0.17 and -2.69 ± 0.21.
As for CCUAAGCAAUAUUACGCCAC, the “self-splicing fitness (ln)” value (30 °C) was -2.75 ± 0.22.
Take UUUCAGCAAUAUUACGUAUU: the “self-splicing fitness (ln)” value reads like this: (30 °C) -2.08 ± 0.13; (37 °C) -1.39 ± 0.13.
On to CCACAGCAAUAUUACGCCCA, for which the “self-splicing fitness (ln)” value (30 °C) was -2.81 ± 0.14 and the “self-splicing fitness (ln)” value (37 °C) is -2.36 ± 0.16.
The like results for UCUAAGCAAUAUUACGGGAU were, in that order, -2.77 ± 0.14 and -2.67 ± 0.18.
The like results for GGUCAGCAAUAUUACGCACG were, in that order, 0.0799 ± 0.1 and 0.287 ± 0.13.
For the sequence GCGAAGCAAUAUUACGCCUC, the “self-splicing fitness (ln)” value (30 °C) is -2.7 ± 0.42.
With CCAGAGCAAUAUUACGUUCC, the “self-splicing fitness (ln)” value was -4.16 ± 0.31 (30 °C) and -2.6 ± 0.44 (37 °C).
The like results for AGCCAGCAAUAUUACGUAGA were, in that order, -2.62 ± 0.1 and -1.84 ± 0.15.
Turning to AAUAAGCAAUAUUACGAAUC, the “self-splicing fitness (ln)” value by setting is: (30 °C) -2.45 ± 0.21; (37 °C) -0.866 ± 0.23.
The like results for UGAUAGCAAUAUUACGGCGG were, in that order, -0.138 ± 0.095 and -0.142 ± 0.13.
The like results for CCGCAGCAAUAUUACGACGU were, in that order, -3.96 ± 0.21 and -2.38 ± 0.22.
CUGCAGCAAUAUUACGCUUC: the “self-splicing fitness (ln)” value (37 °C) is -1.03 ± 0.21.
In the case of GCAGAGCAAUAUUACGAGCA, the “self-splicing fitness (ln)” value (30 °C) was -2.32 ± 0.24 and the “self-splicing fitness (ln)” value (37 °C) was -2.4 ± 0.34.
Regarding GCCAAGCAAUAUUACGCCGA, the “self-splicing fitness (ln)” value reads like this: (30 °C) -1.64 ± 0.15; (37 °C) -0.102 ± 0.11.
Take CAACAGCAAUAUUACGUGGG: the “self-splicing fitness (ln)” value (30 °C) is -3.25 ± 0.096 and the “self-splicing fitness (ln)” value (37 °C) was -1.11 ± 0.075.
The like results for CUCAAGCAAUAUUACGAUAA were, in that order, -3.78 ± 0.16 and -1.93 ± 0.12.
The like results for CAGAAGCAAUAUUACGAUAU were, in that order, -3.56 ± 0.2 and -2.53 ± 0.15.
The like results for CCUGAGCAAUAUUACGAAAG were, in that order, -2.39 ± 0.22 and -2.08 ± 0.23.
For the sequence AUUCAGCAAUAUUACGACUC, the “self-splicing fitness (ln)” value (30 °C) was -0.805 ± 0.19 and the “self-splicing fitness (ln)” value (37 °C) was 0.11 ± 0.19.
The like results for CUUUAGCAAUAUUACGCCGG were, in that order, -1.74 ± 0.16 and -1.22 ± 0.19.
For GAAAAGCAAUAUUACGUUCA, the “self-splicing fitness (ln)” value runs as follows: (30 °C) -0.878 ± 0.086; (37 °C) -0.773 ± 0.082.
The like results for AAAUAGCAAUAUUACGUAAU were, in that order, -3.04 ± 0.12 and -1.75 ± 0.12.
Take GUUGAGCAAUAUUACGUGAA: the “self-splicing fitness (ln)” value (37 °C) was -1.76 ± 0.22.
In the case of CUAAAGCAAUAUUACGAGGA, the “self-splicing fitness (ln)” value was -4.32 ± 0.29 (30 °C) and -1.62 ± 0.27 (37 °C).
The like results for GAGCAGCAAUAUUACGACGC were, in that order, 0.00947 ± 0.079 and 0.534 ± 0.1.
The like results for CCUUAGCAAUAUUACGUUUG were, in that order, -3.99 ± 0.24 and -2.47 ± 0.18.
The like results for GAGAAGCAAUAUUACGUUCC were, in that order, -3.57 ± 0.32 and -1.65 ± 0.29.
For AAAGAGCAAUAUUACGAGCU, under “37 °C”, the “self-splicing fitness (ln)” value is -2.09 ± 0.28.
Regarding UCAUAGCAAUAUUACGAAAU, the “self-splicing fitness (ln)” value is -2.86 ± 0.23 (30 °C) and -2.58 ± 0.28 (37 °C).
The like results for CUCAAGCAAUAUUACGGUAU were, in that order, -3.61 ± 0.17 and -2.08 ± 0.17.
On to ACGUAGCAAUAUUACGCCAA, for which the “self-splicing fitness (ln)” value is, setting by setting: (30 °C) -2.3 ± 0.38; (37 °C) -1.5 ± 0.37.
The like results for GCAAAGCAAUAUUACGUUCC were, in that order, -0.778 ± 0.082 and -0.849 ± 0.14.
The like results for CUGAAGCAAUAUUACGCGAU were, in that order, -0.358 ± 0.071 and 0.0463 ± 0.086.
The like results for GUUUAGCAAUAUUACGCCUC were, in that order, 0.228 ± 0.22 and -0.7 ± 0.23.
Consider CAAUAGCAAUAUUACGAAGC, for which the “self-splicing fitness (ln)” value reads like this: (30 °C) -3.01 ± 0.32; (37 °C) -2.73 ± 0.32.
The like results for GAUAAGCAAUAUUACGUUCU were, in that order, -1.8 ± 0.14 and -2.58 ± 0.29.
Take UGGGAGCAAUAUUACGCGGG: the “self-splicing fitness (ln)” value was -3.85 ± 0.22 (30 °C) and -2.89 ± 0.19 (37 °C).
The like results for CUGCAGCAAUAUUACGUGCC were, in that order, -2.23 ± 0.21 and -2.26 ± 0.26.
The like results for UAUUAGCAAUAUUACGUAGC were, in that order, -2.37 ± 0.22 and -1.31 ± 0.27.
The like results for AAGUAGCAAUAUUACGGCUA were, in that order, -1.01 ± 0.085 and -0.475 ± 0.095.
As for AGGGAGCAAUAUUACGAAAG, the “self-splicing fitness (ln)” value by setting is: (30 °C) -1.91 ± 0.14; (37 °C) -2.14 ± 0.24.
The like results for ACGCAGCAAUAUUACGUGGG were, in that order, -3.55 ± 0.13 and -2.37 ± 0.12.
The like results for ACUUAGCAAUAUUACGUUUU were, in that order, -3.39 ± 0.12 and -1.93 ± 0.1.
The like results for GUAAAGCAAUAUUACGCCUA were, in that order, -0.413 ± 0.14 and 0.493 ± 0.19.
On to UGGUAGCAAUAUUACGAGGA, for which the “self-splicing fitness (ln)” value reads like this: (30 °C) -2.9 ± 0.26; (37 °C) -2.09 ± 0.32.
The like results for AAUAAGCAAUAUUACGUAAG were, in that order, -2.06 ± 0.072 and -0.567 ± 0.084.
For ACCCAGCAAUAUUACGUGAG, the “self-splicing fitness (ln)” value reads like this: (30 °C) -0.151 ± 0.037; (37 °C) -0.0922 ± 0.054.
The like results for GUACAGCAAUAUUACGGCCA were, in that order, -0.539 ± 0.17 and -1.13 ± 0.17.
The like results for UCAUAGCAAUAUUACGCCAU were, in that order, -3.49 ± 0.36 and -1.49 ± 0.33.
Turning to ACGCAGCAAUAUUACGUGUU, the “self-splicing fitness (ln)” value (30 °C) was -4.19 ± 0.1 and the “self-splicing fitness (ln)” value (37 °C) is -2.85 ± 0.14.
As to ACAUAGCAAUAUUACGGCCA, the “self-splicing fitness (ln)” value reads like this: (30 °C) -0.771 ± 0.12; (37 °C) -0.572 ± 0.13.
The like results for GACUAGCAAUAUUACGGUCA were, in that order, -1.13 ± 0.27 and -1.36 ± 0.26.
On to ACACAGCAAUAUUACGAGGG, for which the “self-splicing fitness (ln)” value runs as follows: (30 °C) -3.71 ± 0.11; (37 °C) -1.85 ± 0.1.
The like results for AAGGAGCAAUAUUACGGGAC were, in that order, -2.34 ± 0.23 and -2.36 ± 0.41.
The like results for UCACAGCAAUAUUACGUUCG were, in that order, -1.07 ± 0.061 and -0.209 ± 0.09.
For UUGCAGCAAUAUUACGCAAC, the “self-splicing fitness (ln)” value (37 °C) is -2.11 ± 0.22.
Consider CGGGAGCAAUAUUACGUAGC, for which the “self-splicing fitness (ln)” value is -2.26 ± 0.32 (30 °C) and -1.05 ± 0.22 (37 °C).
As for AGUAAGCAAUAUUACGUAAC, for the setting “30 °C”, the “self-splicing fitness (ln)” value is -2.48 ± 0.23.
Regarding GUGAAGCAAUAUUACGCCGG, where the note is “30 °C”, the “self-splicing fitness (ln)” value is -1.96 ± 0.45.
With CCGCAGCAAUAUUACGCAAA, the “self-splicing fitness (ln)” value is -3.29 ± 0.21 (30 °C) and -2.15 ± 0.22 (37 °C).
The like results for UUCCAGCAAUAUUACGAUAG were, in that order, -2.58 ± 0.18 and -1.4 ± 0.16.
The like results for GUCAAGCAAUAUUACGCUUA were, in that order, -2.07 ± 0.14 and -0.67 ± 0.12.
The like results for CAUAAGCAAUAUUACGGCGG were, in that order, 0.324 ± 0.087 and -0.0169 ± 0.12.
As to AACGAGCAAUAUUACGUCCG, the “self-splicing fitness (ln)” value (37 °C) was -2.07 ± 0.29.
As to AUCAAGCAAUAUUACGCCCG, the “self-splicing fitness (ln)” value is -0.965 ± 0.17 (30 °C) and -0.202 ± 0.2 (37 °C).
The like results for UUCGAGCAAUAUUACGGGUC were, in that order, -3.03 ± 0.38 and -2.89 ± 0.43.
The like results for UCCUAGCAAUAUUACGGCGU were, in that order, -0.736 ± 0.087 and -0.557 ± 0.12.
The like results for UCCAAGCAAUAUUACGUCUA were, in that order, -2.26 ± 0.13 and -0.9 ± 0.11.
For ACAUAGCAAUAUUACGUCUU, the “self-splicing fitness (ln)” value is -1.33 ± 0.077 (30 °C) and -0.302 ± 0.084 (37 °C).
The like results for GCCGAGCAAUAUUACGAUUG were, in that order, -2.48 ± 0.41 and -2.24 ± 0.47.
The like results for GCGUAGCAAUAUUACGAGAC were, in that order, -1.13 ± 0.2 and -2.37 ± 0.39.
Take CACAAGCAAUAUUACGGCAA: the “self-splicing fitness (ln)” value (30 °C) is -2.21 ± 0.1 and the “self-splicing fitness (ln)” value (37 °C) was -1.55 ± 0.089.
The like results for CUAUAGCAAUAUUACGGUCU were, in that order, -4.51 ± 0.36 and -2.14 ± 0.29.
The like results for AACAAGCAAUAUUACGUCAC were, in that order, -3.77 ± 0.22 and -2.29 ± 0.23.
